# B1: Hairpin Ribozyme (parent)
# chain: GUCCUCUUUCACGUGCGCGUGAAAGAGAGAAGUGAACCAGAGAAACACACGUUGUGGUAUAUUACCUGGUA
# Variants of: B1
# Experiment: self-cleavage, relative activity (ratio to wild type); higher = more cleavage; co-transcriptional
row,Variant,self-cleavage
1,A23U A36U,0.491
2,A23U A41C,0.798
3,A23U A43G,0.204
4,A23U A44C,0.133
5,A23U A45U,0.2
6,A23U A47C,0.386
7,A23U A49U,0.193
8,A23U A61C,0.126
9,A23U A61G,0.125
10,A23U A71C,1.28
11,A23U C37U,0.594
12,A23U C38A,0.17
13,A23U C38G,0.167
14,A23U C48G,0.226
15,A23U C66G,0.222
16,A23U C66U,0.545
17,A23U G27U,0.289
18,A23U G29A,0.145
19,A23U G32A,0.147
20,A23U G32U,0.19
21,A23U G34A,0.956
22,A23U G42A,0.214
23,A23U G51A,0.844
24,A23U G51C,0.832

row,Variant,self-cleavage
1,A23U G54A,0.551
2,A23U G56A,0.237
3,A23U G56U,0.184
4,A23U G68A,0.184
5,A23U G68C,0.139
6,A23U U33A,0.153
7,A23U U52G,0.753
8,A23U U53A,0.969
9,A23U U53C,0.935
10,A23U U53G,0.696
11,A23U U55C,0.358
12,A23U U58A,0.539
13,A23U U60C,0.749
14,A23U U60G,0.569
15,A23U U62A,0.106
16,A23U U63A,0.142
17,A23U U63C,0.182
18,A24C A28C,0.349
19,A24C A30G,0.201
20,A24C A35G,0.864
21,A24C A36G,0.928
22,A24C A39U,0.573
23,A24C A43U,0.115
24,A24C A44U,0.17

row,Variant,self-cleavage
1,A24C A45C,0.235
2,A24C A45G,0.171
3,A24C A47C,0.272
4,A24C A47G,0.113
5,A24C A49U,0.119
6,A24C A59U,0.204
7,A24C A64C,0.192
8,A24C A71G,0.99
9,A24C C37G,0.242
10,A24C C37U,0.455
11,A24C C48U,0.216
12,A24C C66U,0.395
13,A24C G25U,0.388
14,A24C G27A,0.341
15,A24C G32U,0.166
16,A24C G34C,1.07
17,A24C G34U,1.43
18,A24C G40U,0.132
19,A24C G42U,0.374
20,A24C G54A,0.547
21,A24C G68A,0.233
22,A24C G69U,0.188
23,A24C U33A,0.2
24,A24C U52A,1.05

row,Variant,self-cleavage
1,A24C U52G,1.08
2,A24C U53G,0.733
3,A24C U55A,0.267
4,A24C U55C,0.305
5,A24C U62G,0.199
6,A24C U63C,0.184
7,A24G A28C,0.338
8,A24G A28U,0.475
9,A24G A35C,0.82
10,A24G A35G,0.797
11,A24G A35U,0.645
12,A24G A36C,0.466
13,A24G A39G,0.308
14,A24G A41G,0.78
15,A24G A43G,0.132
16,A24G A44G,0.152
17,A24G A45G,0.104
18,A24G A47C,0.245
19,A24G A47G,0.191
20,A24G A49G,0.352
21,A24G A49U,0.124
22,A24G A59G,0.272
23,A24G A61U,0.084
24,A24G A64U,0.135

row,Variant,self-cleavage
1,A24G C38A,0.125
2,A24G C38G,0.197
3,A24G C48G,0.181
4,A24G C48U,0.179
5,A24G C50A,0.187
6,A24G C66A,0.214
7,A24G C66U,0.403
8,A24G G25U,0.527
9,A24G G27A,0.401
10,A24G G29A,0.11
11,A24G G40U,0.147
12,A24G G51A,0.745
13,A24G G51U,0.881
14,A24G G57A,0.228
15,A24G G57C,0.118
16,A24G G68A,0.172
17,A24G G69U,0.13
18,A24G U33C,0.125
19,A24G U33G,0.0457
20,A24G U53C,0.881
21,A24G U55G,0.193
22,A24G U62C,0.257
23,A24G U62G,0.0667
24,A24G U63C,0.0931

row,Variant,self-cleavage
1,A24G U70C,0.913
2,A24U A28G,0.731
3,A24U A28U,0.521
4,A24U A31G,0.392
5,A24U A31U,0.0897
6,A24U A35C,0.951
7,A24U A35U,0.584
8,A24U A36U,0.41
9,A24U A39G,0.34
10,A24U A43C,0.174
11,A24U A44U,0.123
12,A24U A45G,0.241
13,A24U A49G,0.533
14,A24U A59U,0.185
15,A24U A61C,0.0949
16,A24U A64C,0.142
17,A24U A64U,0.0963
18,A24U A71G,1.11
19,A24U C38G,0.135
20,A24U C38U,0.471
21,A24U C48A,0.0466
22,A24U C50A,0.346
23,A24U C65A,0.734
24,A24U C65U,0.39

row,Variant,self-cleavage
1,A24U G27C,0.194
2,A24U G29A,0.146
3,A24U G29U,0.0631
4,A24U G32A,0.15
5,A24U G32C,0.114
6,A24U G40A,0.281
7,A24U G40U,0.187
8,A24U G42C,0.394
9,A24U G42U,0.342
10,A24U G51A,0.751
11,A24U G51U,0.78
12,A24U G54A,0.472
13,A24U G54C,0.423
14,A24U G56U,0.232
15,A24U G57C,0.181
16,A24U G68A,0.361
17,A24U G68C,0.0904
18,A24U G69A,0.327
19,A24U U52C,0.723
20,A24U U53G,0.674
21,A24U U55A,0.186
22,A24U U55C,0.11
23,A24U U55G,0.242
24,A24U U60C,1.09

row,Variant,self-cleavage
1,A24U U63C,0.233
2,A24U U67C,0.207
3,A24U U67G,0.231
4,G25A A26U,0.175
5,G25A A28C,0.394
6,G25A A28U,0.585
7,G25A A30C,0.087
8,G25A A31G,0.127
9,G25A A39C,0.374
10,G25A A43G,0.133
11,G25A A44C,0.139
12,G25A A44G,0.158
13,G25A A45C,0.109
14,G25A A47G,0.277
15,G25A A49G,0.275
16,G25A A59G,0.138
17,G25A A61U,0.0154
18,G25A A64G,0.469
19,G25A A71C,1.1
20,G25A C37A,0.199
21,G25A C37G,0.134
22,G25A C38U,0.283
23,G25A C46A,0.105
24,G25A C48A,0.176

row,Variant,self-cleavage
1,G25A C48U,0.135
2,G25A C50A,0.107
3,G25A C65U,0.215
4,G25A C66A,0.15
5,G25A G27U,0.177
6,G25A G29A,0.204
7,G25A G32U,0.144
8,G25A G40A,0.191
9,G25A G40C,0.145
10,G25A G42U,0.186
11,G25A G51A,0.586
12,G25A G56U,0.117
13,G25A G57C,0.0684
14,G25A G68C,0.22
15,G25A G69A,0.238
16,G25A G69U,0.0604
17,G25A U33G,0.136
18,G25A U52A,0.643
19,G25A U52G,0.61
20,G25A U53G,0.524
21,G25A U55C,0.208
22,G25A U58A,0.376
23,G25A U58G,0.496
24,G25A U60G,0.291

row,Variant,self-cleavage
1,G25A U63A,0.108
2,G25A U63C,0.17
3,G25A U67C,0.166
4,G25A U67G,0.176
5,G25A U70G,0.509
6,G25C A28G,0.883
7,G25C A35C,0.474
8,G25C A36U,0.397
9,G25C A43C,0.0652
10,G25C A43U,0.243
11,G25C A44G,0.085
12,G25C A44U,0.112
13,G25C A47G,0.071
14,G25C A59G,0.123
15,G25C A61C,0.0596
16,G25C A64C,0.0865
17,G25C A64G,0.4
18,G25C A71G,0.687
19,G25C C37A,0.281
20,G25C C38U,0.263
21,G25C C46G,0.115
22,G25C C50G,0.178
23,G25C C65U,0.324
24,G25C C66A,0.133

row,Variant,self-cleavage
1,G25C C66U,0.182
2,G25C G27U,0.164
3,G25C G29A,0.13
4,G25C G34C,0.967
5,G25C G40C,0.102
6,G25C G40U,0.12
7,G25C G42A,0.174
8,G25C G51C,0.435
9,G25C G54A,0.239
10,G25C G54U,0.245
11,G25C G57A,0.176
12,G25C G68C,0.187
13,G25C G68U,0.206
14,G25C G69C,0.187
15,G25C G69U,0.199
16,G25C U52C,0.657
17,G25C U53G,0.39
18,G25C U55A,0.163
19,G25C U55C,0.108
20,G25C U55G,0.13
21,G25C U58G,0.403
22,G25C U62A,0.188
23,G25C U63A,0.0846
24,G25C U63C,0.204

row,Variant,self-cleavage
1,G25C U63G,0.189
2,G25C U70G,0.402
3,G25U A26U,0.542
4,G25U A28U,0.509
5,G25U A31G,0.385
6,G25U A35U,0.474
7,G25U A36C,0.463
8,G25U A36U,0.4
9,G25U A39U,0.242
10,G25U A45G,0.118
11,G25U A45U,0.162
12,G25U A47C,0.241
13,G25U A47G,0.0793
14,G25U A59C,0.195
15,G25U A61U,0.185
16,G25U A71C,1.08
17,G25U A71U,0.575
18,G25U C38U,0.332
19,G25U C48G,0.129
20,G25U C50G,0.25
21,G25U C50U,0.287
22,G25U G29U,0.126
23,G25U G34C,1.13
24,G25U G34U,1.28

row,Variant,self-cleavage
1,G25U G40A,0.256
2,G25U G40C,0.131
3,G25U G51C,0.589
4,G25U G54U,0.399
5,G25U G57C,0.163
6,G25U U33A,0.0923
7,G25U U33C,0.145
8,G25U U52C,0.626
9,G25U U52G,0.696
10,G25U U53A,0.647
11,G25U U60A,0.391
12,G25U U63C,0.184
13,G25U U63G,0.174
14,G25U U67C,0.178
15,G25U U67G,0.18
16,A26C A28C,0.329
17,A26C A35C,0.726
18,A26C A36G,0.846
19,A26C A36U,0.556
20,A26C A39G,0.222
21,A26C A41G,0.633
22,A26C A41U,0.74
23,A26C A43G,0.144
24,A26C A43U,0.224

row,Variant,self-cleavage
1,A26C A45C,0.155
2,A26C A49G,0.461
3,A26C A49U,0.239
4,A26C A59G,0.0796
5,A26C A61G,0.0543
6,A26C A61U,0.184
7,A26C A64C,0.216
8,A26C A71C,1.08
9,A26C C37U,0.446
10,A26C C46U,0.172
11,A26C C50A,0.117
12,A26C C65G,0.226
13,A26C C66A,0.34
14,A26C C66G,0.12
15,A26C G27A,0.139
16,A26C G34U,1.03
17,A26C G40A,0.295
18,A26C G42A,0.12
19,A26C G42U,0.307
20,A26C G57A,0.141
21,A26C G68U,0.186
22,A26C G69A,0.327
